In ChEMBL document CHEMBL2074244, “Loss of ATP-dependent transport activity in pseudoxanthoma elasticum-associated mutants of human ABCC6 (MRP6)” (J Biol Chem, 2002):

Key:
[1] = substrate: NC(CCC(=O)NC(CNCC(=O)O)CSCCN1C(=O)C=CC1=O)C(=O)O; assay: (§1) TP_TRANSPORTER: uptake in membrane vesicles from MRP6-expressing Sf9 cells; type: functional, cell membranes, Membrane vesicle
[2] = substrate: CCCCC/C=C\C\C=C/C=C/C=C/[C@@H](SC[C@@H](NC(=O)CC[C@H](N)C(=O)O)C(=O)NCC(=O)O)[C@@H](O)CCCC(=O)O; assay: as §1; type: functional, cell membranes, Membrane vesicle

B1: ATP-binding cassette sub-family C member 6 (Homo sapiens) (protein)
chain: MAAPAEPCAGQGVWNQTEPEPAATSLLSLCFLRTAGVWVPPMYLWVLGPIYLLFIHHHGRGYLRMSPLFKAKMVLGFALIVLCTSSVAVALWKIQQGTPEAPEFLIHPTVWLTTMSFAVFLIHTERKKGVQSSGVLFGYWLLCFVLPATNAAQQASGAGFQSDPVRHLSTYLCLSLVVAQFVLSCLADQPPFFPEDPQQSNPCPETGAAFPSKATFWWVSGLVWRGYRRPLRPKDLWSLGRENSSEELVSRLEKEWMRNRSAARRHNKAIAFKRKGGSGMKAPETEPFLRQEGSQWRPLLKAIWQVFHSTFLLGTLSLIISDVFRFTVPKLLSLFLEFIGDPKPPAWKGYLLAVLMFLSACLQTLFEQQNMYRLKVLQMRLRSAITGLVYRKVLALSSGSRKASAVGDVVNLVSVDVQRLTESVLYLNGLWLPLVWIVVCFVYLWQLLGPSALTAIAVFLSLLPLNFFISKKRNHHQEEQMRQKDSRARLTSSILRNSKTIKFHGWEGAFLDRVLGIRGQELGALRTSGLLFSVSLVSFQVSTFLVALVVFAVHTLVAENAMNAEKAFVTLTVLNILNKAQAFLPFSIHSLVQARVSFDRLVTFLCLEEVDPGVVDSSSSGSAAGKDCITIHSATFAWSQESPPCLHRINLTVPQGCLLAVVGPVGAGKSSLLSALLGELSKVEGFVSIEGAVAYVPQEAWVQNTSVVENVCFGQELDPPWLERVLEACALQPDVDSFPEGIHTSIGEQGMNLSGGQKQRLSLARAVYRKAAVYLLDDPLAALDAHVGQHVFNQVIGPGGLLQGTTRILVTHALHILPQADWIIVLANGAIAEMGSYQELLQRKGALMCLLDQARQPGDRGEGETEPGTSTKDPRGTSAGRRPELRRERSIKSVPEKDRTTSEAQTEVPLDDPDRAGWPAGKDSIQYGRVKATVHLAYLRAVGTPLCLYALFLFLCQQVASFCRGYWLSLWADDPAVGGQQTQAALRGGIFGLLGCLQAIGLFASMAAVLLGGARASRLLFQRLLWDVVRSPISFFERTPIGHLLNRFSKETDTVDVDIPDKLRSLLMYAFGLLEVSLVVAVATPLATVAILPLFLLYAGFQSLYVVSSCQLRRLESASYSSVCSHMAETFQGSTVVRAFRTQAPFVAQNNARVDESQRISFPRLVADRWLAANVELLGNGLVFAAATCAVLSKAHLSAGLVGFSVSAALQVTQTLQWVVRNWTDLENSIVSVERMQDYAWTPKEAPWRLPTCAAQPPWPQGGQIEFRDFGLRYRPELPLAVQGVSFKIHAGEKVGIVGRTGAGKSSLASGLLRLQEAAEGGIWIDGVPIAHVGLHTLRSRISIIPQDPILFPGSLRMNLDLLQEHSDEAIWAALETVQLKALVASLPGQLQYKCADRGEDLSVGQKQLLCLARALLRKTQILILDEATAAVDPGTELQMQAMLGSWFAQCTVLLIAHRLRSVMDCARVLVMDKGQVAESGSPAQLLAQKGLFYRLAQESGLV
In the case of B1, the Km [1] is reported as 282 µM and the Km [2] is reported as 0.6 µM.
